Literature values in publication PMC9084902, “Low-Molecular Weight Protamine Overcomes Chondroitin Sulfate Inhibition of Neural Regeneration” (Frontiers in Cell and Developmental Biology, 2022).

Tests used:
[1] = system: hemisection and hemicontusion spinal cord injury models; conditions: mice; ref Kulesskaya et al., 2021; cited from earlier work
From the text: (§1) Our candidate protein to overcome the CS inhibition on neurite outgrowth and regeneration has been HB-GAM (heparin-binding growth-associated molecule; pleiotrophin) that was initially isolated by screening for factors from juvenile rat brain that enhance neurite outgrowth in CNS neurons ([Rauvala, 1989]; [Li et al., 1990]; [Merenmies and Rauvala, 1990]). […] Furthermore, we have recently shown t ...

[2] = system: CNS neurons; conditions: aggrecan and a CSPG mixture isolated from brain; ref Paveliev et al., 2016; cited from earlier work
From the text: as §1

[3] = system: glypican-1; conditions: through heparan sulfate chains; ref Paveliev et al., 2016; cited from earlier work
From the text: In the case of HB-GAM we have identified glypican-1 as a neuron surface receptor using unbiased mass spectrometry search of neuron binding sites for the substrate-attached HB-GAM ([Paveliev et al., 2016]). […] Interaction of glypican-1 with LMWP also appears likely since LMWP binds to heparin/heparan sulfate chains. Another possible cell surface receptor of LMWP is the transmembrane receptor PTPRZ (protein tyrosine ph ...

[4] = ref Rauvala, 1989; cited from earlier work
From the text: Protamine is a small 33 amino acid long protein that takes part in DNA packing during spermatogenesis ([Kasinsky et al., 2011]). Over 60% of the salmon protamine sequence is comprised of arginines so that it interacts strongly with negatively charged DNA phosphates in vivo and potentially with any other negatively charged molecules. […] Protamine sulfate is therefore widely used as a drug in cardiopulmonary bypass surgery to stop the effect of heparin ([Kaneda et al., 2005]; [Bromfield et al. ... || The CS chains even enhance the neurite outgrowth-promoting effect of HB-GAM, and we have ended up in a model according to which the CS chains of the CSPGs display a positive role by concentrating HB-GAM on the matrix and presenting it to neuron surface receptors. According to our model, two polycationic regions separated by a linker are essential to reverse the CS inhibition of neurite outgrowth ([Paveliev et al., 2016]; [Rauvala et al., 2017]). To test our hypothesis we decided to search for peptide structures that are similar to HB-GAM and display similar binding properties. Protamine displa ...

B1: heparin-binding growth-associated molecule (protein, UniProt P63090 33-168, looked up)
Pleiotrophin: GKKEKPEKKVKKSDCGEWQWSVCVPTSGDCGLGTREGTRTGAECKQTMKTQRCKIPCNWKKQFGAECKYQFQAWGECDLNTALKTRTGSLKRALHNADCQKTVTISKPCGKLTKPKPQAESKKKKKEGKKQEKMLD
notes: initially isolated by screening for factors from juvenile rat brain that enhance neurite outgrowth in CNS neurons
functional recovery after spinal cord injury [1]: enhances functional recovery in hemisection and hemicontusion spinal cord injury models in mice | neurite outgrowth on CSPG substrates [2]: overcomes the CS inhibition and enhances neurite outgrowth on CSPG substrates | binding to glypican-1 [3]: binds to HB-GAM through its heparan sulfate chains | binding to heparin [4]: binds avidly to heparin
